Laboratory results reported in the domain aggregation screens of Martell et al. (2025).

Assay: soluble fraction after stress (log2 fold change); higher = more stays soluble; pooled small domains, quantitative proteomics
Conditions: stress: pH 4
Outline: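 Values are on a log2 scale, where higher means more of the domain stayed soluble after pH 4 stress. They are fold changes in the soluble amount of each domain from pooled custom libraries, measured by high-throughput quantitative proteomics. The fold change is taken to reflect aggregation propensity.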

HMLDIQKKGENIAYIEGAGDVIPESLKQIGYHVVTIAPKDINAETLSRFDAVVVGIRAYNTVEDL
soluble fraction (log2): -0.241

HMLDKIRTYIDNSFTGVNETKKVKELKDELFENLKEKYNDQIQDGKTEQEAYNSVISGIGDLSELIESVK
soluble fraction (log2): -0.0804

HMLDKKKHLEQGRKIIEDQLAKYKIQPSFDTLKKLSAYYGLNNKEQLYAQVGMGFLELENLDEILQ
soluble fraction (log2): -0.347

HMLDLPVRTINGRQYYYYEVRNRETVYGLSKRLGVTREEIVRYNPSMADGLKRGAILYFPVDEFSDRI
soluble fraction (log2): -0.0139

HMLDLSDFEVVRDLYLSEQIWNVGDLIIARSKKDDTYKAWEIIRKGTNYVTGIDESHKVEKIWLHDILI
soluble fraction (log2): -1.1

HMLDSPHDDLNRKIVQMLQNDGRLPYKDIAEVLSVSEGTVRNRVQRMRDAGMLNIVALIDPMAI
soluble fraction (log2): -0.498

HMLDTPLTARELDVLYLMRQRMSAKEIAKQLGIATMTVNRHAANLYRKLGVNTRWDAVYRAEEVGILPP
soluble fraction (log2): -0.592

HMLDVNLIFSRPGFSLSAAFTLHAGGITVLRGDSGSGKTTLADLLSGAIAPQKGRILSDGDIWFDAASGIN
soluble fraction (log2): -0.163

HMLDYITLSPQELGKLLSAGNGDAAMVYLYMKATGDVTLKQAETQLGMTNQNLAWAESLLKRLGLMD
soluble fraction (log2): -0.501

HMLDYKSALQELLQAQRRSRPRYEVISTEGPDHERVFEVAVWLDNEELGRGKGRSKREAEHQAAQAALTQL
soluble fraction (log2): -0.626

HMLDYQLQVFKDTLEANRKHRGQKIVFIHGKGEGVLRRALIHALNYQYKKFTYQDASFREYGYGATQVTI
soluble fraction (log2): -0.0148

HMLEEIDYPEEQLQLLFAWSRDHVQSTPPGLPVVDDHVWHILVRGYGATDQRTEAFALLASYAGFP
soluble fraction (log2): -0.722

HMLEIDPPVDEISVSRKAFYEAAGYKVNPYTHIPPRYRKEFEEHSFVVMSWPRELPEETYRKFDRYLRDV
soluble fraction (log2): -0.253

HMLEIRGFTVLLSDRGIVGIIEEIIQNPGQDLLRILSPEKREILVPLHSDLITGINKKKKTITMNLPDGL
soluble fraction (log2): -0.775

HMLELTGEEEFVIRTLTRQGDLHINALVVETDIPINRMISLLFELEMKGVVKALVGGVYHLLG
soluble fraction (log2): -1.58

HMLELTVSDKMARLMAWRNRRRVNLSDQELHRIAAAPKQSPESILKMLPGFLQDSVPEIWAELTGGRP
soluble fraction (log2): -0.0678

HMLENSLDHIEGIGPKTKDTLLTYFKSVSKIKSANPSILAELIGAAKTKILLAAFEKEKTTS
soluble fraction (log2): 0.17

HMLENYEGFKQKILKLTGIDLSSYKERQMRRRIDSLIHRNNYDDYDEYFKALTQNSNLYDEFINYLTI
soluble fraction (log2): -0.424

HMLEQEDMYGYQMIETLRERSEHSFDLKAGTLYPLLHALEQKGLITARDEASAAGRPRRYYHLTDAG
soluble fraction (log2): -1.05

HMLERPLFTPEQYGRFRGKEARIRLSNPVEGRKTLTGSIVEATEERIVVFVEEEEREVTVPFQWIKSGNL
soluble fraction (log2): -0.523

HMLESVMHSRIAEIISREGTAPAHMSMQEKIRVVHKLDADGILMMKGAVAEIADQLSVSVPTIYRYLNKPQ
soluble fraction (log2): ≥ 0.43

HMLETILQIGKDGVGENLVKQVNDALEARELIKGRVLDNNLELDARTAAQILAKATRSEVVQVIGTKFV
soluble fraction (log2): 0.0332

HMLEVTQTDVKMYTTSGTPVYAAPDLNSAIVVYLERFVNVTVTGITDNGFYRVNLNGDYYIPGPYLISSV
soluble fraction (log2): -0.759

HMLEYIEPRTAVQIHGIKAKPELNGKRGMVMGYAPERMRYRVRIDVGEGTGGKESEEVYLKPENVIAVK
soluble fraction (log2): 0.101

HMLFKGDTREENVILEFLSKNGTTSSDAIIKQTGLSASEFNQAITMLELKGLALNNGGEKWSL
soluble fraction (log2): -0.0366

HMLGDAVLRQVLETIPEDPAVDYLELRRNTGMTEADLDRVLADLENLGVINKKRTVEQVLYWRT
soluble fraction (log2): -1.44

HMLGDAWSMLILRDAHSGFSRFDQFRKSLGIAPTMLTKRLSVLVDEGLLEKRQYSEHPPREEYVLTQAGQD
soluble fraction (log2): 0.149

HMLGERIRTLRKEIGMSVTELARRVKTSPSHISEIERGEKMPSLNLLVKIAKELKTSIDYLTGLVG
soluble fraction (log2): -0.487

HMLGNIERALEMLQEVAATMDPVDIRLLLSMAQVESVRGNTEAAVKLIDEALVIDPGNERIEQIRLRVL
soluble fraction (log2): -0.869

HMLGRPDMSPIPEGSRNNDLHAWGFGRLANHPDNKRQIEADFFERGRISGLGDAEIRASWNSILRQLGHQ
soluble fraction (log2): 0.276

HMLGSVRTIRQVLDDGRLIVADGGGNPSVIRRSGALAHETFANGQRVIVDPSGRLALELLPD
soluble fraction (log2): 0.315

HMLGVLEYYNNGQKKSERTFKGGMQIYTEWYENGQMKAEERKWIDQLGSLKFLNLLSTEWDENGNEISRME
soluble fraction (log2): -1.28

HMLGYGEQEREAQKYLEMHTAFQADPSLQKMYLPENQYALISKVMEMTGIKNVKSYLTPPNEL
soluble fraction (log2): -0.236

HMLHVRSALMSELDGIEGIGEKRKRLLFDAFITRDAIAAATLEQLMAVKGMNRPSAEAVHKHFHG
soluble fraction (log2): 0.203

HMLIELKIPSEWAGKSLHTLNLRQNYNVNVIGFRDEKSGKLNTHFDPSKKLPDEGIILVVADNRTLEKF
soluble fraction (log2): -0.451

HMLIIDLPDFTNKKLSELQQWADANQITLKIVEKDVSSKPYDTILEQTPAKNKYEKIVKGSTMTVTVNIK
soluble fraction (log2): -0.272

HMLINFPNKLKRLRLANNLTQQELANILETTKQAVSSYESGKSTPSLNSLIKLSEHFNISLDSLVFD
soluble fraction (log2): -0.446

HMLINIKTNSAVNVRSGPGMGFEVVNTYPSGYILQAKEMQKDGGDNVWYKVKDGWLSANYTIDI
soluble fraction (log2): 0.394

HMLINPLDILRNFNLSLYDDSRDSASNKEIDEIFESIKTNNSHIFSTLKAYRIPLPIASLIIKKIIKITLE
soluble fraction (log2): -0.882

HMLISDENMLRDLVQAVLDENPKSVSDYKSGKTKAFGFLVGQTMKAVKGQADPMLVNKILTELLN
soluble fraction (log2): -0.0698

HMLISYRVDALANEAGLSVDTIRYYQKLGILDPPKRTGRHSEYSPDHLERLIEIRRLADAGLTLSQISEI
soluble fraction (log2): -2.33

HMLKAKKIPVSDLEKFKGIVAEDVVSKAKALILPRGSNLSWLSNVAKKNLIAKLKAEGIEYISVYSS
soluble fraction (log2): 0.0669

HMLKDGPIGAYADSVIRDIIEKMERFSKEHINVDMLKIHEKIMLIDEPIIRMALLDEFHRVSHDN
soluble fraction (log2): -1.2

HMLKEKETRALANFTNKFFGLDISEDLKPIALSELSKFKKTHKISNLEEFINSFQYDFQNEKILSLLDIFL
soluble fraction (log2): -0.879

HMLKFPIGTHVGKKKPSANLSLPNKHGVVIGHGERRNAKGAIMRFYIVETTHSSRPEEWAPGITYPL
soluble fraction (log2): -0.275

HMLKHEEIQEYIKEQINSGTWKPKAKLPSLRDMSELFSTSIGTVLTAYSALEKKHIIYSIPRSGYYVLG
soluble fraction (log2): -0.334

HMLKLEDIKKDAQVKGIVDGQIVRIVTVEPIGDHALTVYYKDHQGQFAERMLFRSDELNLELATA
soluble fraction (log2): -0.64

HMLKLSGEESQQLALRLREELARRRITRQGLADAAKISISTLEQVLAGRRTFTLATIVRLEEGLGIKLL
soluble fraction (log2): 0.387

HMLKNKSTGNINETKAILELALNHSHFKVFDNRDMTVTFKNLATQFTTMQRILVQMFFPLPAGVELIIE
soluble fraction (log2): 0.268

HMLKNYATPEQRAQLDMLKDKGIIGENELMQLGKYPSQDKASEVLENHADAVKMLDSDEISNRAEAIRSHD
soluble fraction (log2): 0.22

HMLKPQQTQRIYAMAARLGVLESGNKNDMLHTIVYRLTQKESIRSLNENEYKTVVSELAERLKL
soluble fraction (log2): -0.917

HMLKQLGRQEGRQEGAVDALRTVLALQIEQRFGPLDPTVQALIVAADIDALQRALSRVAVVSDLGAVFPP
soluble fraction (log2): -0.862

HMLKRLTVEFSAEMPKKMTSEQKEELASVLSEDPRPAYQNDENREYGLDYGEFSVKFKVKDGVLTVTSVTE
soluble fraction (log2): 0.226

HMLLNLSPIETQVLRLIQQDKKVTYESIGKELTIGQTKVYKVLGHLKELNVIERIGGRTYGHWHILL
soluble fraction (log2): -0.599

HMLLNPFERLTERELEIADLYAKGYGNLEIANFLSIKQNTVSTYKKRIFEKLGIDNLVELIELIKNY
soluble fraction (log2): -0.839

HMLLQTRQRHEALAALGYFKGDVAAAWGPASEEALRAAQAAFGITVDGKWGPQTEDAIQGALQV
soluble fraction (log2): -0.701

HMLLREKLESVLPFISVSALAKTYFKRSPQWFYQRLNGSIVNGKPIRFNDAELKTLAGALTDIGKKISQAA
soluble fraction (log2): 0.157

HMLLSEPSVLKFNDDNSYEIVSGFLTEYKDKIVKIERRYKKATVKITVAGEEKEIKVSFVEDTE
soluble fraction (log2): -1.13

HMLLSTHVVVAKEDVQIGTRLQPAMLQVVDWPSASPLKNPLTSIEQATDRVVNMPLVKGEPISMSKLAAKG
soluble fraction (log2): 0.0815

HMLLTASNYFKETKGINFSELPEALQKGHSFVIKSTENGTNWNAYSTSQNIQRVIDAYFSKLDEYLEKNQ
soluble fraction (log2): -0.202

HMLLTHEEQIVKRGWQAPVGPFAILDSRAEAMHGDLEMLRGDREAAEQHFRRAWQIIGPIVEQ
soluble fraction (log2): 0.0572

HMLMKILTDALEKMSPEELKELAEATGVKNTSSITPETMVGVFQAVFRVGGFKSYQLTLIIVNAVLKA
soluble fraction (log2): -0.398

HMLMRKAEVGVESLNLRHGPGTQYKVLEILPGGKSLHYLAEPRRGWVRVTTEEGTTGWTFLKFLKPE
soluble fraction (log2): -0.0205

HMLNENNHGEWSIRMSNGLVVRLGRDELNRSLRRSIMAYAGLAPNYRSSIEYIDARYLGGVALKTF
soluble fraction (log2): -0.159

HMLNKRQAEILAEVSRLKEITPSELYKLQPNVSSRTLRRDMDVLVNKGLVSQDGSTKSTKYTYL
soluble fraction (log2): 0.102

HMLNMTLGDRIRSRREELRMSQEELATRLGYKSRSTIAKIESGENDLTQSKIVAFAEALSTTARWLLDY
soluble fraction (log2): 0.0651

HMLNVNDVIARNVRAARERKKLTLDGAAELTGVSRSMLAQIEKGEVNPTISVVWKIANGFKVSFTSLVEPQ
soluble fraction (log2): -0.0104

HMLPAGSDAILRYLSSGAVKGIGVATAARIVEKFGDETLRILEEEPGRLAEIKGITAAKAKAIGEAFAGQ
soluble fraction (log2): -0.143
